Where a chain is given by its changes, count along the chain named.
What was measured:
[1] = test system: MRSA strain USA400; assay: In vitro inhibitory activity (MIC); type: cell-based, Staphylococcus aureus
Source text: F11, P12 and F13 were screened for in vitro inhibitory activity against MRSA strain USA400 (FIG. 7).

[2] = test system: MRSA strain USA400; assay: In vivo efficacy of F11, intraperitoneal MRSA challenge; parameters: species or system C57BL/6 mice; settings: 100 μg single bolus i.v. 1 h after 2×10^8 MRSA i.p.
Description: Mice were challenged with an intraperitoneal injection of 2×10^8 MRSA strain USA400, and 1 hour later the mice were treated with 100 μg wild-type LST, F11 or PBS. The percent survival is shown.
The in vivo efficacy of the F11 variant was further analyzed in C57BL/6 mice. Mice were challenged with an intraperitoneal injection of 2×10^8 MRSA strain USA400, and 1 hour later the mice were treated with 100 μg wild-type LST, F11 or PBS, administered as a single bolus intravenous injection. The survival rate for both protein treatments was 1/3. The 100 μg dosage was selected because wild-type LST is known to be only partially efficacious at this dose.

[3] = Immunogenicity of F13, antibody titers by ELISA (CFA); type: in vivo, DR4 HLA transgenic mice; settings: 100 μg s.c. in CFA, fourteen days
Description: (§1) The immunogenicity of the F13 variant was compared to wild-type LST in DR4 HLA transgenic mice, i.e., mice bearing partially humanized immune systems. 100 μg of wild-type LST or variant F13 were mixed with complete Freund's adjuvant and injected subcutaneously into DR4 mice. Fourteen days later, antibody titers were measured by ELISA. Variant F13 yielded more than 200-fold lower antibody titers compared to wild-type LST. To assess the impact of antibody titers on antibacterial efficacy, the mice were challenged with an intraperitoneal injection of 2×10^8 MRSA strain USA400, and 1 hour later the mice were treated with 500 μg wild-type LST, variant F13, or PBS, administered as a single bolus intravenous injection. Both mice receiving PBS sham treatments died as did both mice treated with wild-type LST. In contrast, both mice treated with variant F13 survived. Thus, the reduced immunogenicity of F13 conferred enhanced therapeutic efficacy in vivo.

[4] = test system: MRSA strain USA400; assay: Efficacy of F13 in immunized mice, MRSA challenge; type: in vivo, DR4 HLA transgenic mice; settings: 500 μg i.v. 1 h after 2×10^8 MRSA i.p.
Description: as §1

B1: F11: variant combining cell wall binding domain mutations with Flex 9 (or derivative) catalytic domain (Table 22) (protein)
chain: AATHEHSAQWLGNYKKGYGYGPYPLGINGGMHYGVDFFMNEGTPVKAISSGKIVEAGWSNYGGGNQIGLIENDGVHRQWYMHMSKYNVKVGDYVEAGQQIGWSGSTGYSTAPHLHFQRMVGDFGNPTAQDPMPFLKSAGYGKAGGTVTPTPNTGWKTNKHGTLYKSESGSFTPNTDIITRTTGPFTSMPQSGVLKAGQTIHYDEVMKQDGHVWVGYTGNSGQRIYLPVRTWQKSTNTLGVLWGTIK
- MIC activity relative to wild-type LST [1]: 12.5%
- survival rate [2]: 1/3

B2: F13: variant combining cell wall binding domain mutations with Flex 9 (or derivative) catalytic domain (Table 22) (protein)
chain: B1 chain with S166N, N236D
- fold lower antibody titers compared to wild-type LST [3]: more than 200 fold
- survival [4]: survived
- MIC activity relative to wild-type LST [1]: 12.5%
- retained original MIC activity after heating ([1]; 50° C. for 1 hour prior to assay): 25%

— patent US11091749B2, “Deimmunized lysostaphin and methods of use” (TRUSTEES OF DARTMOUTH COLLEGE, priority 2014, dated 2021)
